Our source for the self-cleavage values is the RNAGym collection of RNA variant scans (doi:10.7554/elife.80360).

The chains are these.
B1: Twister Ribozyme (parent)
chain: AACACUGCCAAUGCCGGUCCCAAGCCCGGAUAAAAGUGGAGGGGGCGG

The variants in the data set derive from B1. Kind of data set: self-cleavage, relative activity (ratio to wild type); higher = more cleavage; co-transcriptional.
Turning to C5A A34G, the self-cleavage was found to be 0.41.

G7C U18A: the self-cleavage was 0.0787.

In the case of A10U U12A, the self-cleavage came out at 0.986.

Take U6A A23C: the self-cleavage worked out at 0.097.

A1U C3G: the self-cleavage came out at 0.0927.

For the variant G17U A35G, the self-cleavage was found to be 0.1.

In the case of U37A G45A, the self-cleavage was determined as 0.835.

Take A10U G42U: the self-cleavage was found to be 0.447.

Consider C20U A32U, for which the self-cleavage is 0.887.

For G7A A33G, the self-cleavage came out at 0.243.

As for G17U C27G, the self-cleavage was 0.424.

As for G17U G48A, the self-cleavage was found to be 0.316.

As to A4G G48A, the self-cleavage is 0.955.

Take A4C C9G: the self-cleavage was found to be 0.107.

C21A C26G: the self-cleavage amounted to 0.0786.

Turning to G44A G47U, the self-cleavage is 0.922.

Take A2C G47A: the self-cleavage was determined as 0.0858.

Turning to C8G C14A, the self-cleavage was 0.495.

In the case of U12A C14U, the self-cleavage is 1.05.

Turning to C20A C25U, the self-cleavage amounted to 0.112.

Regarding C25A A35C, the self-cleavage was determined as 0.141.

Consider C19G A40C, for which the self-cleavage is 0.132.

Regarding G24A A33G, the self-cleavage is 0.097.

Take C8A G24C: the self-cleavage came out at 0.31.

As to C5G C25U, the self-cleavage was 0.411.

For the variant A1U A23C, the self-cleavage is 0.09.

For the variant C26U G43A, the self-cleavage worked out at 0.125.

Consider C26U G43C, for which the self-cleavage worked out at 0.0933.

On to U12G C21G, for which the self-cleavage worked out at 0.0698.

As for A10U G45A, the self-cleavage is 0.999.

On to A4U G28A, for which the self-cleavage stood at 0.0702.

As to C26G G38U, the self-cleavage was found to be 0.0977.

With G7U A30C, the self-cleavage worked out at 0.0485.

As to A33C G45A, the self-cleavage stood at 0.795.

Turning to C3G U12A, the self-cleavage amounted to 0.658.

On to C3G U12G, for which the self-cleavage is 0.4.

A2C U31A: the self-cleavage is 0.0563.

Take G7A A10C: the self-cleavage amounted to 0.459.

Consider U18A G41C, for which the self-cleavage worked out at 0.0769.

Turning to G29C A30G, the self-cleavage was determined as 0.91.

As to A22C G47U, the self-cleavage was determined as 0.917.

Regarding U12A G38A, the self-cleavage is 1.08.

For the variant A11U, the self-cleavage amounted to 1.04.

Consider C8U G28A, for which the self-cleavage turned out to be 0.446.

For A1G C8G, the self-cleavage stood at 0.262.

In the case of C5G C26U, the self-cleavage amounted to 0.104.

Regarding G7A A22U, the self-cleavage came to 0.103.

As to G7A A22C, the self-cleavage turned out to be 0.519.

In the case of C25A A30G, the self-cleavage stood at 0.233.

For C19G A35U, the self-cleavage is 0.34.

As to G16A A40U, the self-cleavage was 0.125.

Take G17A C25G: the self-cleavage came out at 0.0728.

For A2U G13A, the self-cleavage was 0.153.

Turning to G39U G45U, the self-cleavage stood at 0.141.

Consider G7A G41U, for which the self-cleavage was 0.11.

Regarding U12G G44C, the self-cleavage was 0.681.

Take C20G G47C: the self-cleavage turned out to be 0.133.

In the case of C19A U37A, the self-cleavage turned out to be 0.0721.

Consider A1U C14U, for which the self-cleavage was 0.08.

As to A2G U37A, the self-cleavage was 0.142.

A4C C21A: the self-cleavage turned out to be 0.105.

Consider C25G G48C, for which the self-cleavage was found to be 0.167.

For C20U G47A, the self-cleavage was determined as 0.859.

For A11C C46G, the self-cleavage amounted to 0.917.

Turning to U6G U12C, the self-cleavage was found to be 0.35.

With A23U G29A, the self-cleavage is 0.285.

In the case of A2G A33U, the self-cleavage turned out to be 0.401.

As to G13U G41U, the self-cleavage was 0.104.

As for G36A G43U, the self-cleavage was 0.147.

With A4U C26G, the self-cleavage was 0.0523.

Turning to G42A G43C, the self-cleavage was 0.113.

Turning to A2C G7C, the self-cleavage stood at 0.0586.

As to C20U G29A, the self-cleavage was found to be 0.81.

With G7C C9G, the self-cleavage is 0.0747.

Regarding C26U G45A, the self-cleavage is 0.232.

As to G43U G47C, the self-cleavage was determined as 0.177.

Consider U6A G13A, for which the self-cleavage stood at 0.195.

For the variant G24A G39A, the self-cleavage worked out at 0.106.

For C3G G44C, the self-cleavage came out at 0.345.

Take U12C C14A: the self-cleavage was 0.818.

On to C20A A22C, for which the self-cleavage came out at 0.126.

As for C14G G17C, the self-cleavage turned out to be 0.124.

G16C G36C: the self-cleavage is 0.0717.

For the variant C9G G24C, the self-cleavage is 0.0967.

With U6A A10G, the self-cleavage amounted to 1.22.

In the case of U18G G29A, the self-cleavage was 0.089.

For the variant G13C G48A, the self-cleavage was 0.115.

On to A4C A10C, for which the self-cleavage is 0.152.

Turning to A32U G41U, the self-cleavage came out at 0.659.

For A32U A33G, the self-cleavage was determined as 0.891.

A4U G45U: the self-cleavage amounted to 0.124.

As for C19A G44C, the self-cleavage turned out to be 0.746.

On to G24U U37G, for which the self-cleavage came out at 0.092.

Consider A10U C27G, for which the self-cleavage is 0.057.

Turning to G16A C19G, the self-cleavage was determined as 0.172.

Consider C20A G48U, for which the self-cleavage worked out at 0.142.

As for C5U U37A, the self-cleavage was determined as 0.547.

As to U18C A33C, the self-cleavage was 0.386.

For the variant C20A G38A, the self-cleavage stood at 0.0955.

In the case of C27A G45C, the self-cleavage was found to be 0.144.

On to G24C G42C, for which the self-cleavage worked out at 0.0931.

Turning to A22U C27U, the self-cleavage is 0.692.

As for C20A, the self-cleavage was found to be 0.16.

As for C20G, the self-cleavage is 0.169.

Consider U6C C20A, for which the self-cleavage was determined as 0.0292.

Regarding C14A G36C, the self-cleavage was determined as 0.351.

Regarding A1G A10U, the self-cleavage was 0.428.

Take A11U A33U: the self-cleavage is 1.03.

As for C25U G47A, the self-cleavage was 0.663.

As to C9U G13U, the self-cleavage turned out to be 0.826.

Consider C5U A34G, for which the self-cleavage worked out at 0.511.

Consider C15U C27U, for which the self-cleavage was 0.542.

Turning to C20U A40C, the self-cleavage was determined as 0.0976.

Regarding G17U G29A, the self-cleavage was determined as 0.118.

G28A G48C: the self-cleavage was found to be 0.94.

With G17C C25U, the self-cleavage is 0.0911.

Take G7A U37G: the self-cleavage came to 0.162.

Take C15U G29U: the self-cleavage came out at 0.652.

A4C U6G: the self-cleavage turned out to be 0.0323.

For A4U G39U, the self-cleavage was found to be 0.0721.

In the case of C8G A22G, the self-cleavage is 0.0585.

G24A G38U: the self-cleavage was determined as 0.126.

With A10G C19A, the self-cleavage came to 0.472.

Turning to C25U G36A, the self-cleavage turned out to be 0.263.

On to C26A G41U, for which the self-cleavage was found to be 0.154.

As to C8G U12C, the self-cleavage was 0.435.

With C8G C20A, the self-cleavage worked out at 0.11.

Take C26G C27U: the self-cleavage was found to be 0.0811.

Regarding G28C G29A, the self-cleavage came out at 1.

With C8G, the self-cleavage was determined as 0.558.

On to C5U A10U, for which the self-cleavage was 0.816.

As to A4G U18C, the self-cleavage turned out to be 0.58.

A1C G13A: the self-cleavage came out at 0.12.

For the variant A2U G47C, the self-cleavage was 0.174.

For the variant C21A G29A, the self-cleavage was determined as 0.132.

With C25G C26U, the self-cleavage stood at 0.0513.

For C20G G36C, the self-cleavage turned out to be 0.168.

For the variant U6G G38U, the self-cleavage turned out to be 0.223.

Consider A2C C14G, for which the self-cleavage is 0.0512.

Regarding U18A A40C, the self-cleavage amounted to 0.133.

Take C14G A34U: the self-cleavage came to 0.159.

With G17C A33G, the self-cleavage came out at 0.093.

Turning to G17U G45A, the self-cleavage is 0.148.

For the variant U12C G38C, the self-cleavage amounted to 0.951.

For C3A A11G, the self-cleavage was 0.185.

For A10C G43U, the self-cleavage was found to be 0.482.

In the case of G17U C46G, the self-cleavage was 0.301.

For the variant A11U C19U, the self-cleavage was found to be 0.933.

With A10G A30U, the self-cleavage is 0.984.

As for A30U A35U, the self-cleavage turned out to be 0.812.

Take C21G G39U: the self-cleavage is 0.0469.

On to A11G G45A, for which the self-cleavage worked out at 0.811.

Take C9G G36C: the self-cleavage is 0.148.

With A10U G38U, the self-cleavage amounted to 0.863.

For C8G A34C, the self-cleavage amounted to 0.121.

As for G16U A40G, the self-cleavage was 0.206.

Turning to C14G G43U, the self-cleavage amounted to 0.08.

On to G29U G47U, for which the self-cleavage turned out to be 0.694.

Regarding A22C G39U, the self-cleavage is 0.111.

For C20A G47C, the self-cleavage came to 0.108.

With C46A, the self-cleavage amounted to 0.927.

As for C46U, the self-cleavage came out at 0.958.

Turning to C5U G39U, the self-cleavage is 0.175.

As for G28U G38U, the self-cleavage is 0.766.

Regarding A4G G29U, the self-cleavage was 0.851.

Turning to U37C G45U, the self-cleavage turned out to be 0.515.

For G7A G42U, the self-cleavage stood at 0.136.
